Source: US20210032299A1 (Eli Lilly, published 2021)
Starred links: 1 amine or outer side, 2 acyl side, 3 side chain; linkers in the order of their positions; H or OH if unused. Non-standard residues stand in square brackets, D forms with d. Groups on a side chain read outwards from the residue. No end group written: not given here. *: point of attachment. C20 diacid = O=C(O)CCCCCCCCCCCCCCCCCCC(=O)*; C18 diacid = O=C(O)CCCCCCCCCCCCCCCCC(=O)*; αMePhe(2-F) = C[C@](N)(Cc1ccccc1F)C(=O)O; γGlu = O=C(O)[C@H](CCC(=O)[*:2])N[*:1]; 4Pal = N[C@@H](Cc1ccncc1)C(=O)O; αMeL = CC(C)C[C@](C)(N)C(=O)O; Orn = NCCC[C@H](N)C(=O)O; AEEA = NCCOCCOCC(=O)O; Aib = CC(C)(N)C(=O)O

T1: human glucose-dependent insulinotropic peptide receptor (human, UniProt P48546 22-466)
T1 sequence (looked up): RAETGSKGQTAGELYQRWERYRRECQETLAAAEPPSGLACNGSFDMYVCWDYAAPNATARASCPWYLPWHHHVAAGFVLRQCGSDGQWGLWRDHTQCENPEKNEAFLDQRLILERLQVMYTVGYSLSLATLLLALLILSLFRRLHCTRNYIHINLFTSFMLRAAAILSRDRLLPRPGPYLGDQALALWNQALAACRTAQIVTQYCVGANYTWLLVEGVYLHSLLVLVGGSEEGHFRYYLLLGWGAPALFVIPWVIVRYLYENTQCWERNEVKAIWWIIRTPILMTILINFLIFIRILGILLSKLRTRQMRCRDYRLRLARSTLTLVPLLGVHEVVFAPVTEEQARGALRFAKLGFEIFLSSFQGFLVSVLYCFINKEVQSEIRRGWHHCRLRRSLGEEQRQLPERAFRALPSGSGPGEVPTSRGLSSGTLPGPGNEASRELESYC

T2: human glucose-dependent insulinotropic polypeptide (GIP) receptor (human, UniProt P48546 22-466)
T2 construct: whole, on cells; Assayed as crude membranes of stably transfected CHO cells; also called hGIPR; human GIP receptor
T2 sequence (looked up): T1 sequence (looked up)

B1: Example 121 (peptide)
peptide: Y[Aib]EGT[αMePhe(2-F)]ISDYSILLDKIHQ[Aib]DFVE[4Pal]K([AEEA-AEEA-γGlu-C20 diacid])LEQGPSSGAPPPS-NH2
modifications: N-terminus assumed
SMILES: CC[C@H](C)[C@H](NC(=O)[C@H](CO)NC(=O)[C@H](Cc1ccc(O)cc1)NC(=O)[C@H](CC(=O)O)NC(=O)[C@H](CO)NC(=O)[C@@H](NC(=O)[C@](C)(Cc1ccccc1F)NC(=O)[C@@H](NC(=O)CNC(=O)[C@H](CCC(=O)O)NC(=O)C(C)(C)NC(=O)[C@@H](N)Cc1ccc(O)cc1)[C@@H](C)O)[C@@H](C)CC)C(=O)N[C@@H](CC(C)C)C(=O)N[C@@H](CC(C)C)C(=O)N[C@@H](CC(=O)O)C(=O)N[C@@H](CCCCN)C(=O)N[C@H](C(=O)N[C@@H](Cc1c[nH]cn1)C(=O)N[C@@H](CCC(N)=O)C(=O)NC(C)(C)C(=O)N[C@@H](CC(=O)O)C(=O)N[C@@H](Cc1ccccc1)C(=O)N[C@H](C(=O)N[C@@H](CCC(=O)O)C(=O)N[C@@H](Cc1ccncc1)C(=O)N[C@@H](CCCCNC(=O)COCCOCCNC(=O)COCCOCCNC(=O)CC[C@H](NC(=O)CCCCCCCCCCCCCCCCCCC(=O)O)C(=O)O)C(=O)N[C@@H](CC(C)C)C(=O)N[C@@H](CCC(=O)O)C(=O)N[C@@H](CCC(N)=O)C(=O)NCC(=O)N1CCC[C@H]1C(=O)N[C@@H](CO)C(=O)N[C@@H](CO)C(=O)NCC(=O)N[C@@H](C)C(=O)N1CCC[C@H]1C(=O)N1CCC[C@H]1C(=O)N1CCC[C@H]1C(=O)N[C@@H](CO)C(N)=O)C(C)C)[C@@H](C)CC
B2: Example 13 (peptide)
peptide: Y[dA]EGTFISDYSILLDKK([AEEA-AEEA-γGlu-C20 diacid])HQQEFVNWLLAQGPSSGAPPPS-NH2
modifications: N-terminus assumed
SMILES: CC[C@H](C)[C@H](NC(=O)[C@H](CO)NC(=O)[C@H](Cc1ccc(O)cc1)NC(=O)[C@H](CC(=O)O)NC(=O)[C@H](CO)NC(=O)[C@@H](NC(=O)[C@H](Cc1ccccc1)NC(=O)[C@@H](NC(=O)CNC(=O)[C@H](CCC(=O)O)NC(=O)[C@@H](C)NC(=O)[C@@H](N)Cc1ccc(O)cc1)[C@@H](C)O)[C@@H](C)CC)C(=O)N[C@@H](CC(C)C)C(=O)N[C@@H](CC(C)C)C(=O)N[C@@H](CC(=O)O)C(=O)N[C@@H](CCCCN)C(=O)N[C@@H](CCCCNC(=O)COCCOCCNC(=O)COCCOCCNC(=O)CC[C@H](NC(=O)CCCCCCCCCCCCCCCCCCC(=O)O)C(=O)O)C(=O)N[C@@H](Cc1c[nH]cn1)C(=O)N[C@@H](CCC(N)=O)C(=O)N[C@@H](CCC(N)=O)C(=O)N[C@@H](CCC(=O)O)C(=O)N[C@@H](Cc1ccccc1)C(=O)N[C@H](C(=O)N[C@@H](CC(N)=O)C(=O)N[C@@H](Cc1c[nH]c2ccccc12)C(=O)N[C@@H](CC(C)C)C(=O)N[C@@H](CC(C)C)C(=O)N[C@@H](C)C(=O)N[C@@H](CCC(N)=O)C(=O)NCC(=O)N1CCC[C@H]1C(=O)N[C@@H](CO)C(=O)N[C@@H](CO)C(=O)NCC(=O)N[C@@H](C)C(=O)N1CCC[C@H]1C(=O)N1CCC[C@H]1C(=O)N1CCC[C@H]1C(=O)N[C@@H](CO)C(N)=O)C(C)C
B3: Example 14 (peptide)
peptide: Y[dA]EGTFISDYSILLDKK([AEEA-AEEA-γGlu-C20 diacid])HQQDFVEWLLAQGPSSGAPPPS-NH2
modifications: N-terminus assumed
SMILES: CC[C@H](C)[C@H](NC(=O)[C@H](CO)NC(=O)[C@H](Cc1ccc(O)cc1)NC(=O)[C@H](CC(=O)O)NC(=O)[C@H](CO)NC(=O)[C@@H](NC(=O)[C@H](Cc1ccccc1)NC(=O)[C@@H](NC(=O)CNC(=O)[C@H](CCC(=O)O)NC(=O)[C@@H](C)NC(=O)[C@@H](N)Cc1ccc(O)cc1)[C@@H](C)O)[C@@H](C)CC)C(=O)N[C@@H](CC(C)C)C(=O)N[C@@H](CC(C)C)C(=O)N[C@@H](CC(=O)O)C(=O)N[C@@H](CCCCN)C(=O)N[C@@H](CCCCNC(=O)COCCOCCNC(=O)COCCOCCNC(=O)CC[C@H](NC(=O)CCCCCCCCCCCCCCCCCCC(=O)O)C(=O)O)C(=O)N[C@@H](Cc1c[nH]cn1)C(=O)N[C@@H](CCC(N)=O)C(=O)N[C@@H](CCC(N)=O)C(=O)N[C@@H](CC(=O)O)C(=O)N[C@@H](Cc1ccccc1)C(=O)N[C@H](C(=O)N[C@@H](CCC(=O)O)C(=O)N[C@@H](Cc1c[nH]c2ccccc12)C(=O)N[C@@H](CC(C)C)C(=O)N[C@@H](CC(C)C)C(=O)N[C@@H](C)C(=O)N[C@@H](CCC(N)=O)C(=O)NCC(=O)N1CCC[C@H]1C(=O)N[C@@H](CO)C(=O)N[C@@H](CO)C(=O)NCC(=O)N[C@@H](C)C(=O)N1CCC[C@H]1C(=O)N1CCC[C@H]1C(=O)N1CCC[C@H]1C(=O)N[C@@H](CO)C(N)=O)C(C)C
B4: Example 122 (peptide)
peptide: Y[Aib]EGTFISDYSI[αMeL]LD[Orn]IHQ[Aib]EFVE[4Pal]K([AEEA-AEEA-γGlu-C20 diacid])LEAGPSSGAPPPS-NH2
modifications: N-terminus assumed
SMILES: CC[C@H](C)[C@H](NC(=O)[C@H](CCCN)NC(=O)[C@H](CC(=O)O)NC(=O)[C@H](CC(C)C)NC(=O)[C@](C)(CC(C)C)NC(=O)[C@@H](NC(=O)[C@H](CO)NC(=O)[C@H](Cc1ccc(O)cc1)NC(=O)[C@H](CC(=O)O)NC(=O)[C@H](CO)NC(=O)[C@@H](NC(=O)[C@H](Cc1ccccc1)NC(=O)[C@@H](NC(=O)CNC(=O)[C@H](CCC(=O)O)NC(=O)C(C)(C)NC(=O)[C@@H](N)Cc1ccc(O)cc1)[C@@H](C)O)[C@@H](C)CC)[C@@H](C)CC)C(=O)N[C@@H](Cc1c[nH]cn1)C(=O)N[C@@H](CCC(N)=O)C(=O)NC(C)(C)C(=O)N[C@@H](CCC(=O)O)C(=O)N[C@@H](Cc1ccccc1)C(=O)N[C@H](C(=O)N[C@@H](CCC(=O)O)C(=O)N[C@@H](Cc1ccncc1)C(=O)N[C@@H](CCCCNC(=O)COCCOCCNC(=O)COCCOCCNC(=O)CC[C@H](NC(=O)CCCCCCCCCCCCCCCCCCC(=O)O)C(=O)O)C(=O)N[C@@H](CC(C)C)C(=O)N[C@@H](CCC(=O)O)C(=O)N[C@@H](C)C(=O)NCC(=O)N1CCC[C@H]1C(=O)N[C@@H](CO)C(=O)N[C@@H](CO)C(=O)NCC(=O)N[C@@H](C)C(=O)N1CCC[C@H]1C(=O)N1CCC[C@H]1C(=O)N1CCC[C@H]1C(=O)N[C@@H](CO)C(N)=O)C(C)C
B5: Example 93 (peptide)
peptide: Y[dA]EGTFISDYSILLDKIAQ[Aib]DFVNWK([AEEA-AEEA-γGlu-C18 diacid])LAQGPSSGAPPPS-NH2
modifications: N-terminus assumed
SMILES: CC[C@H](C)[C@H](NC(=O)[C@H](CCCCN)NC(=O)[C@H](CC(=O)O)NC(=O)[C@H](CC(C)C)NC(=O)[C@H](CC(C)C)NC(=O)[C@@H](NC(=O)[C@H](CO)NC(=O)[C@H](Cc1ccc(O)cc1)NC(=O)[C@H](CC(=O)O)NC(=O)[C@H](CO)NC(=O)[C@@H](NC(=O)[C@H](Cc1ccccc1)NC(=O)[C@@H](NC(=O)CNC(=O)[C@H](CCC(=O)O)NC(=O)[C@@H](C)NC(=O)[C@@H](N)Cc1ccc(O)cc1)[C@@H](C)O)[C@@H](C)CC)[C@@H](C)CC)C(=O)N[C@@H](C)C(=O)N[C@@H](CCC(N)=O)C(=O)NC(C)(C)C(=O)N[C@@H](CC(=O)O)C(=O)N[C@@H](Cc1ccccc1)C(=O)N[C@H](C(=O)N[C@@H](CC(N)=O)C(=O)N[C@@H](Cc1c[nH]c2ccccc12)C(=O)N[C@@H](CCCCNC(=O)COCCOCCNC(=O)COCCOCCNC(=O)CC[C@H](NC(=O)CCCCCCCCCCCCCCCCC(=O)O)C(=O)O)C(=O)N[C@@H](CC(C)C)C(=O)N[C@@H](C)C(=O)N[C@@H](CCC(N)=O)C(=O)NCC(=O)N1CCC[C@H]1C(=O)N[C@@H](CO)C(=O)N[C@@H](CO)C(=O)NCC(=O)N[C@@H](C)C(=O)N1CCC[C@H]1C(=O)N1CCC[C@H]1C(=O)N1CCC[C@H]1C(=O)N[C@@H](CO)C(N)=O)C(C)C

Assays:
[1] = target: T1, human glucose-dependent insulinotropic …; assay: cell-based or functional assay
human GLP-1 receptor = human GLP-1 receptor (human, UniProt P43220 24-463); assay: cell-based or functional assay
human glucagon receptor = human glucagon receptor (human, UniProt P47871 26-477); assay: cell-based or functional assay
[2] = target: T2, human glucose-dependent insulinotropic …; assay: SPA, displacement of [125I]-GIP from hGIPR membranes, 0.1% bacitracin
Description: The binding buffer contains 25 mM HEPES, pH 7.4, 2.5 mM CaCl₂, 1 mM MgCl₂, 0.1% (w/v) bacitracin, 0.003% (w/v) TWEEN®-20, and Roche Complete™ Protease Inhibitors without EDTA. […] Plates are sealed and mixed on a plate shaker (setting 6) for 1 minute and read with a PerkinElmer Trilux MicroBeta® scintillation counter after 2.5 to 12 hours of incubation/settling time at room temperature.
Data are analyzed using four-parameter (curve maximum, curve minimum, […], Hill slope) nonlinear regression routines (Genedata Screener, version 12.0.4, Genedata AG, Basal, Switzerland). […] Values for Kᵢ are reported as the geometric mean, with error expressed as the standard error of the mean (SEM) and n is equal to the number of independent replicates (determined in assays performed on different days). Geometric Means are calculated as follows: […]

human glucagon receptor, sequence (P47871 26-477): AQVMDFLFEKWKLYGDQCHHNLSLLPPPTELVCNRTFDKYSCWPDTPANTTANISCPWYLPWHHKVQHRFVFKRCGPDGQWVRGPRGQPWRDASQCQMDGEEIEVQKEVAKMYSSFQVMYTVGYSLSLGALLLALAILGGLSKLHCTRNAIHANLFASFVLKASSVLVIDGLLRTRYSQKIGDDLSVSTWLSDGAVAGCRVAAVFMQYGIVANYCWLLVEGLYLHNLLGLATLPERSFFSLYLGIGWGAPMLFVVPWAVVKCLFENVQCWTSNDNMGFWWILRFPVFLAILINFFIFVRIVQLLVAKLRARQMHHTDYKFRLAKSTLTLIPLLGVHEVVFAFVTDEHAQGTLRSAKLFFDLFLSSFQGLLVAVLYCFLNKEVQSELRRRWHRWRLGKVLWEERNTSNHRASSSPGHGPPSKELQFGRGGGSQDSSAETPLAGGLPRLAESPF

| Binder | hGIPR cAMP Rel EC50 [1] [nM] | hGLP1R cAMP Rel EC50 (human GLP-1 receptor) [nM] | hGcgR cAMP Rel EC50 (human glucagon receptor) [nM] | Ki [2] [nM] |
| --- | --- | --- | --- | --- |
| B1 | 0.0196 | > 5000 | > 5000 | – |
| B2 | – | – | – | 0.237 |
| B3 | – | – | – | 0.46 |
| B4 | 0.01 | > 5000 | > 5000 | – |
| B5 | – | – | – | 0.043 |
